This experiment deals with Recombinant human Cathepsin B (human) (UniProt P07858). The experiment is described as follows: cell-based or functional assay.

With “ADC1, AF-Arg-Lys(PEG4-Mal-trastuzumab)-Phe-OH (antibody)”, the T 1/2 of release of AF-Arg by Cat B was less than 5 min.
